Measurements from publication PMC4176176, “The CRISPR-associated Cas4 protein Pcal_0546 from Pyrobaculum calidifontis contains a [2Fe-2S] cluster: crystal structure and nuclease activity” (Nucleic Acids Research, 2014).

Target: the molecule itself
Assay: SEC; size-exclusion chromatography of the purified protein on a Superdex S200 10/300 GL column

B1: Cas4 protein SSO1391 from Sulfolobus solfataricus (enzyme, UniProt Q97YD4 1-291, looked up)
chain: MFFTHSDMLLLSKRIKKLPKNVDEELRGWNWSEPPVYTRSLSQVSISEMVYCSTLRNVYLKVKGFRGEIGRQILQGSLIHTIYAIGIEAIKRFIYSRESIDGSTLRTLMGDEFYSLLKDLREEEGIYAKVLWDHITNIYSAELDRVRSKFTNLTRDSLVSQVVPFYVEFPVDGSLLGLTNLRVDAFIPHLPLIAEMKTGKYRYTHELSLAGYALAIESQYEIPIDFGYLCYVTVTEKEVKNNCKLIPISDSLRSEFLDMRDKAQDIMDKGVDPGIAKDCESDCMFYKVCHP
notes: Cas4 protein SSO1391 (DUF911 family), Sulfolobus solfataricus; predicted molecular mass 35.9 kDa
  stoichiometry N: 2
